{
  "source": "patent US20220242950A1",
  "about": "(CANTARGIA, published 2022)",
  "key": {"[1]": {"molecular_target": "T1, human IL1RAP on the cell surface (human, UniProt Q9NPH3 21-570)", "T1 sequence (looked up)": "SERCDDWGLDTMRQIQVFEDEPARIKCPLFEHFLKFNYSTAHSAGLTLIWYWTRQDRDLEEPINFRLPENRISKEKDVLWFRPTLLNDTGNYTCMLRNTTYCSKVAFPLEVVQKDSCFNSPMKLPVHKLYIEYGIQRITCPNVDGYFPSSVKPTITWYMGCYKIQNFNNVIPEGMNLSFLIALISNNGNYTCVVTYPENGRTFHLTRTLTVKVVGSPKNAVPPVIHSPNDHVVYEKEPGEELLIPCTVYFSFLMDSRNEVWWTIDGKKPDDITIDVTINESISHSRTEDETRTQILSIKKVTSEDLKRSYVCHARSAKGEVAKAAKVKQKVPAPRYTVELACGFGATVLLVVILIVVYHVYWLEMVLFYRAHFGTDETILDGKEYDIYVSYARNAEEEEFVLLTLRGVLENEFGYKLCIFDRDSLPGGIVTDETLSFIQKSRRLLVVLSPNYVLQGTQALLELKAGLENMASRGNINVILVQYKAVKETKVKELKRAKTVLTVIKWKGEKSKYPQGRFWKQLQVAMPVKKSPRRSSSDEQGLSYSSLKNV", "assay": "cell-based or functional assay"}, "[2]": {"molecular_target": "T2, rat IL1RAP (rat (Rattus norvegicus), UniProt Q63621 21-367, limits assumed)", "T2 construct": "also called rnIL1RAP", "T2 sequence (looked up)": "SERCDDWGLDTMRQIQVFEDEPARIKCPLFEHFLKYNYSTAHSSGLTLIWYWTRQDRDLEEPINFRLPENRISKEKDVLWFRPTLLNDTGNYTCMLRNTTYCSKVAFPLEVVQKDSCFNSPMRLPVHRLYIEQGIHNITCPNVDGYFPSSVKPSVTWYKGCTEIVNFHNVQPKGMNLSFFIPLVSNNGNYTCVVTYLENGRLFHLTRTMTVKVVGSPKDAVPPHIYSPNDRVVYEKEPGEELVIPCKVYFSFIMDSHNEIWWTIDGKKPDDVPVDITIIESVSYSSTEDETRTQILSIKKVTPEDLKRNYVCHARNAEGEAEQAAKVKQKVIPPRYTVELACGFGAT", "assay": "indirect ELISA on coated IL1RAP, goat anti-human antibody-alkaline phosphatase, absorbance at 405 nm", "procedure": "(§1) Microtiter plate wells were coated with IL1RAP orthologs (Mus musculus, Rattus norvegicus, Macaca fascicularis (Mf, synonymous to cynomolgus monkey), Oryctolagus cuniculus, Canis lupus familiaris, Sus scrofa) and incubated for 1 hour at 37° C. Plates were washed followed by a blocking step. After 1 hour incubation at room temperature on agitation, the plates were washed again. The antibody was diluted in fourfold serial dilution, ranging from 4000 ng/ml to 0.24 ng/ml, in ELISA blocking solution, and then transferred to the ELISA plate. Plates were incubated at 37° C. in 30 min on agitation and then washed. Goat Anti-Human antibody conjugated to Alkaline Phosphatase was added and incubated 30 min at 37° C. on agitation. The plates were washed followed by addition of substrate (4-Nitrophenyl phosphate disodium salt hexahydrate). The plates were thereafter incubated at room temperature on agitation and absorbance at 405 nm measured consecutively for 50 min. Absorbance at 0 min was taken as background signal.\n(§2) The antibody is added in increasing concentrations and absorbance at 405 nm is used to detect binding to IL1RAP. As for chimeric 48D2, the humanized and de-immunized variants h48D2 VH5.GL:VL4 and h48D2 VH5.GL:VL5.GL were cross reactive to IL1RAP from cynomolgus monkey (cyno) and pig, but have no cross reactivity to IL1RAP from mouse, rat, rabbit or dog (FIG. 18 and Table 20)."}, "[3]": {"molecular_target": "T3, mouse IL1RAP (mouse (Mus musculus), UniProt Q61730 21-367, limits assumed)", "T3 construct": "Coated ortholog in the cross reactivity ELISA; also called mIL1RAP; murine IL1RAP", "T3 sequence (looked up)": "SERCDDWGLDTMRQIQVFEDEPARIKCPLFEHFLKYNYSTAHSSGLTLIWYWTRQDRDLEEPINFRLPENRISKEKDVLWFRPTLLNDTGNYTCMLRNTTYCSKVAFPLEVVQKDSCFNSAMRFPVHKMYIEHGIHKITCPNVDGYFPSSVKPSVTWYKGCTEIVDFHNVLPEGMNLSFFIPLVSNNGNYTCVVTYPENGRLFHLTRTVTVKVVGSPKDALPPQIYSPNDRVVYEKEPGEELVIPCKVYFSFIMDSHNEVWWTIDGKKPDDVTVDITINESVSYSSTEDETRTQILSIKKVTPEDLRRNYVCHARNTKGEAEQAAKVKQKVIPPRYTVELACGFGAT", "assay": "indirect ELISA on coated IL1RAP, goat anti-human antibody-alkaline phosphatase, absorbance at 405 nm", "procedure": "as §1, §2"}, "[4]": {"molecular_target": "T4, recombinant hIL1RAP Domain1+2+3 (aa21-367) (human, UniProt Q9NPH3 21-367)", "T4 construct": "Numbering on Uniprot Q9NPH3", "T4 sequence (looked up)": "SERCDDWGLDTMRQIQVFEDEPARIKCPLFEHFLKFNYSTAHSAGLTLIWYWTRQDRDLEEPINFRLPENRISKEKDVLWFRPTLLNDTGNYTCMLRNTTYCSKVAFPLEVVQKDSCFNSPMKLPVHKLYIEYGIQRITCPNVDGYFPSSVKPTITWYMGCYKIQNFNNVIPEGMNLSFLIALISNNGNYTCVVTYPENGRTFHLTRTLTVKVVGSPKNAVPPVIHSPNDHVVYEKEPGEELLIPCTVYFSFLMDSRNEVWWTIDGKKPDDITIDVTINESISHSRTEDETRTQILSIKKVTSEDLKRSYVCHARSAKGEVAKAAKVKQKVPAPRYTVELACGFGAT", "assay": "bio-layer interferometry, human IL1RAP", "procedure": "(§3) Affinity measurements were done on BLItz™ Label-Free Protein Analysis System from ForteBio, using the Basic Kinetics module in the BLItz Pro 1.3.1.3 software from Molecular Devices. Protein A biosensors were hydrated in blocking buffer (PBS, 0.5% BSA, 0.05% Tween 20, pH 7.4) for minimum 10 min at room temperature before coating. Protein A biosensors were coated with antibodies by dipping the biosensors in 200 μl of antibody solution (10 μg/ml in blocking buffer) for 30 min at room temperature. The sensors were then incubated in 200 μl blocking buffer for at least 10 min before use. […] The baseline was made in blocking buffer with a duration time of 30 sec. Association was made for 120 sec in hIL1RAP followed by 120 sec dissociation in blocking buffer.\nKD values for affinity towards human IL1RAP are shown in Table 17 for the de-immunized h48D2 variants. Affinity was measured using bio-layer interferometry. […] See also Table 4 for a direct comparison of 48D2, humanized 48D2, and de-immunized h48D2."}, "[5]": {"molecular_target": "T2, rat IL1RAP", "assay": "indirect ELISA on coated IL1RAP, goat anti-human antibody-alkaline phosphatase, absorbance at 405 nm", "procedure": "as §1\n(§4) The antibody is added in increasing concentrations and absorbance at 405 nm is used to detect binding of the antibody to IL1RAP orthologues. 48D2 is cross reactive to IL1RAP from human, cynomolgus monkey (cyno) and pig, but has no cross reactivity to IL1RAP from mouse, rat, rabbit or dog (FIG. 14 and Table 7).", "remark": "listed apart in the source"}, "[6]": {"molecular_target": "T3, mouse IL1RAP", "assay": "indirect ELISA on coated IL1RAP, goat anti-human antibody-alkaline phosphatase, absorbance at 405 nm", "procedure": "as §1, §4", "remark": "listed apart in the source"}, "[7]": {"molecular_target": "T4, recombinant hIL1RAP Domain1+2+3 …", "assay": "BLI (BLItz), antibody on Protein A biosensor, hIL1RAP (21-367) in solution", "procedure": "as §3\nAffinity measurement results are shown in Table 4 for chimeric 48D2, as well as for humanized 48D2 variant VH5:VL4 (see Example 11) and for humanized and de-immunized 48D2 variant VH5.GL:VL4 (see Example 13). kₐ is the association rate constant, for characterization of the antibody binding to the target, kd is the dissociation rate constant, for characterization of the antibody dissociation from the target, and KD is the equilibrium dissociation constant between the antibody and its antigen, the ratio of kd/kₐ. […] The lower the KD value (lower concentration), the higher the affinity."}, "[8]": {"molecular_target": "T1, human IL1RAP on the cell surface", "assay": "cell-based or functional assay", "remark": "listed apart in the source"}, "[9]": {"molecular_target": "T1, human IL1RAP on the cell surface", "assay": "flow cytometry on SKMEL-5 cells, Alexa488 anti-human IgG secondary", "procedure": "FIG. 12: Dose-dependent binding of chimeric 48D2 to cell membrane IL1RAP Chimeric 48D2 or hIgG1 (hIg=human immunoglobulin) isotype control antibody was added to SKMEL-5 cells in increasing concentrations and extracellular binding was analyzed by flow cytometry. Chimeric 48D2 specifically bound IL1RAP on the cell membrane in a dose-dependent manner and with higher mean fluorescent intensity (MFI) compared to the hIgG1 isotype control antibody.\nThe malignant melanoma (or malign melanoma) cell line SKMEL-5, which expresses IL1RAP on the cell surface, was used for the analysis. SKMEL-5 cells were cultured according to standard procedures. 5×10⁴ SKMEL-5 cells were blocked with human Fc block and then stained with 8-step serial dilutions (100 μg/ml-0.03 μg/ml) of chimeric 48D2 or isotype control antibody. Following secondary staining using Alexa488-conjugated anti-human IgG antibody, 10000 cells/sample were analyzed on a CytoFlex (Beckman Coulter). HTB183 cells expressing low levels of surface IL1RAP were used as negative controls."}},
  "note": "Like-named read-outs stand apart in the source and are kept apart here.",
  "data": [
    {"binder": "h48D2 VH5.GL:VL5.GL (antibody, human IgG1, kappa, L234A L235A, Humanized and de-immunized; also called VL5.GL:VH5.GL) heavy: not shown light: DIQMTQSPSTLSASVGDRVTITCQASESISTALAWYQQKPGQPPKLLIYKASTLPSGVPSRFSGSGSGTEFTLTISDLESDDAATYYCQQGFSSGNVHNAFGGGTEVVVKRTVAAPSVFIFPPSDEQLKSGTASVVCLLNNFYPREAKVQWKVDNALQSGNSQESVTEQDSKDSTYSLSSTLTLSKADYEKHKVYACEVTHQGLSSPVTKSFNRGEC", "values": [
      {"measurement": "IC50 of IL-1α signaling (HEK-Blue assay)", "setting": "[1]", "result": 0.24, "unit": "nM"},
      {"measurement": "IC50 of IL-1β signaling (HEK-Blue assay)", "setting": "[1]", "result": 0.13, "unit": "nM"},
      {"measurement": "IC50 of IL-33 signaling (HEK-Blue assay)", "setting": "[1]", "result": 3.56, "unit": "nM"},
      {"measurement": "IC50 of IL-36α signaling (HEK-Blue assay)", "setting": "[1]", "result": 0.174, "unit": "nM"},
      {"measurement": "IC50 of IL-36β signaling (HEK-Blue assay)", "setting": "[1]", "result": 0.185, "unit": "nM"},
      {"measurement": "IC50 of IL-36γ signaling (HEK-Blue assay)", "setting": "[1]", "result": 0.244, "unit": "nM"},
      {"measurement": "binding result", "setting": "[2]", "result": "no binding (tested: 4000 ng/mL)"},
      {"measurement": "binding result", "setting": "[3]", "result": "no binding (tested: 4000 ng/mL)"},
      {"measurement": "Kd", "setting": "[4]", "result": 1.47, "unit": "nM"}
    ]},
    {"binder": "chimeric 48D2 (antibody, V domains shown, not shown: a dimerising Fc or GST, Chimeric rabbit/human IgG1, expressed in CHO cells; also called ch48D2; 48D2 chimeric (ch) rabbit/human anti-human IL1RAP) VH: QEQLEESGGGLVKPGGSLTLTCTVSGPSLSHFDITWVRQAPGSGLEWIGTISPGVSTYYASWAKSRSTITSNTNLNTVTLKMTSLTAADTATYFCARGGVGSSWKAFDLWGPGTLVTISS VL: APVLTQTPASVEVAVGGTVTIKCQASESISTALAWYQQKPGQPPKLLIYKASTLPSGVSSRFKGSGSGTEFALTISDLECDDAATYYCQQGFSSGNVHNAFGGGTEVVVKR", "values": [
      {"measurement": "binding result", "setting": "[5]", "result": "no binding (tested: 4000 ng/mL)"},
      {"measurement": "binding result", "setting": "[6]", "result": "no binding (tested: 4000 ng/mL)"},
      {"measurement": "Kd", "setting": "[7]", "result": 2.67, "unit": "nM"},
      {"measurement": "koff", "setting": "[7]", "result": 0.000174, "unit": "s⁻¹"},
      {"measurement": "kon", "setting": "[7]", "result": 65200, "unit": "M⁻¹ s⁻¹"},
      {"measurement": "IC50 of IL-1α signaling (HEK-Blue assay)", "setting": "[8]", "result": 1.92, "unit": "nM"},
      {"measurement": "IC50 of IL-1β signaling (HEK-Blue assay)", "setting": "[8]", "result": 0.7, "unit": "nM"},
      {"measurement": "IC50 of IL-33 signaling (HEK-Blue assay)", "setting": "[8]", "result": 2.92, "unit": "nM"},
      {"measurement": "IC50 of IL-36α signaling (HEK-Blue assay)", "setting": "[8]", "result": 0.0083, "unit": "nM"},
      {"measurement": "IC50 of IL-36β signaling (HEK-Blue assay)", "setting": "[8]", "result": 0.0081, "unit": "nM"},
      {"measurement": "IC50 of IL-36γ signaling (HEK-Blue assay)", "setting": "[8]", "result": 0.0111, "unit": "nM"},
      {"measurement": "EC50 (read off the curve)", "setting": "[9]", "result": "~6", "unit": "nM"}
    ]}
  ]
}
